# Data as given in article PMC2873105 (Virology, 2010).
# Target: the molecule itself
# Test: native gel or EMSA
protein,measurement,value
MBP-Rep78 (adeno-associated virus type 2 Rep78 fused to MBP) (enzyme) MPGFYEIVIKVPSDLDGHLPGISDSFVNWVAEKEWELPPDSDMDLNLIEQAPLTVAEKLQRDFLTEWRRVSKAPEALFFVQFEKGESYFHMHVLVETTGVKSMVLGRFLSQIREKLIQRIYRGIEPTLPNWFAVTKTRNGAGGGNKVVDECYIPNYLLPKTQPELQWAWTNMEQYLSACLNLTERKRLVAQHLTHVSQTQEQNKENQNPNSDAPVIRSKTSARYMELVGWLVDKGITSEKQWIQEDQASYISFNAASNSRSQIKAALDNAGKIMSLTKTAPDYLVGQQPVEDISSNRIYKILELNGYDPQYAASVFLGWATKKFGKRNTIWLFGPATTGKTNIAEAIAHTVPFYGCVNWTNENFPFNDCVDKMVIWWEEGKMTAKVVESAKAILGGSKVRVDQKCKSSAQIDPTPVIVTSNTNMCAVIDGNSTTFEHQQPLQDRMFKFELTRRLDHDFGKVTKQEVKDFFRWAKDHVVEVEHEFYVKKGGAKKRPAPSDADISEPKRVRESVAQPSTSDAEASINYADRYQNKCSRHVGMNLMLFPCRQCERMNQNSNICFTHGQKDCLECFPVSESQPVSVVKKAYQKLCYIHHIMGKVPDACTACDLVNVDLDDCIFEQ,binding result,binds
